In patent US20120288507A1 (Amgen, published 2012):

Key:
human WISE I114A = target: T1, human WISE I114A (human, UniProt Q6X4U4 24-206); experiment: capture ELISA, WISE mutant supernatant (FIG. 22)
T1 construct: Alanine mutant of loop 2, used as supernatant of transiently transfected mammalian cells
T1 chain: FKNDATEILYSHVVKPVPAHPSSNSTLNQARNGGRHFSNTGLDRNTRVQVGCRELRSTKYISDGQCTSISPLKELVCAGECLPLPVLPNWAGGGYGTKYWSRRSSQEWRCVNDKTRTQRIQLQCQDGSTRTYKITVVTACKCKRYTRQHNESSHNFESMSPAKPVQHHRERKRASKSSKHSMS
Description: (§1) Relative capture of individual WISE mutant proteins or wild type proteins by either neutralizing antibodies or non-neutralizing antibodies was compared to assess whether any of these single amino acid changes affects the binding of an antibody to WISE protein. The bound WISE proteins were then detected using HRP-conjugated affinity-purified polyclonal antibody against WISE.
(§2) Purified anti-WISE antibodies (0.5 ug/ml) were added onto high-binding ELISA plates pre-coated with 1 ug/ml of goat anti-mouse IgG Fc (Pierce). Plates were incubated for 1 hour in room temperature. Plates were then washed 4× with Wash Buffer. Subsequently alanine scanned WISE loop-2 mutant supernatants from transient transfection cultures (100× diluted) were added and incubated for 1 hour in room temperature. After 4× wash, rabbit anti-WISE Pab-biotin (50 ng/ml)+NeutrAvidin-HRP (Pierce, Cat #31001) were added onto the plates and incubated for 1 hour in room temperature. Plates were again washed 4× with Wash Buffer. Binding was analyzed using 1-Step Ultra TMB-ELISA substrate (Pierce; Cat #34028) according to the manufacturer's instructions.

human WISE K121A = target: T2, human WISE K121A (human, UniProt Q6X4U4 24-206); experiment: capture ELISA, WISE mutant supernatant (FIG. 22)
T2 construct: Alanine mutant of loop 2, used as supernatant of transiently transfected mammalian cells
T2 chain: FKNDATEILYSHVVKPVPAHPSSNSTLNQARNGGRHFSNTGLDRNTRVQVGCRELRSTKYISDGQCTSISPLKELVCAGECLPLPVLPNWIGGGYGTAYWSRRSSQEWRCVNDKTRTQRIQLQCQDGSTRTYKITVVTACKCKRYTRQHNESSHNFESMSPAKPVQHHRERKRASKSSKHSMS
Description: as §1, §2

human WISE = target: T3, human WISE (human, UniProt Q6X4U4 24-206); experiment: capture ELISA binding profile (FIG. 22)
T3 construct: Recombinant protein secreted from mammalian cells; also called hWISE; huWISE
T3 sequence: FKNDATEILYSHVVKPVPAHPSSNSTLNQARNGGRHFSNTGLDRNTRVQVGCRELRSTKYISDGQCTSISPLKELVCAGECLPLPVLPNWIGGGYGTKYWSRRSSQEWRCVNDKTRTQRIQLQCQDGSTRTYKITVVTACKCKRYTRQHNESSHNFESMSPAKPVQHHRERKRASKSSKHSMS
Description: as §1, §2

Measured: binding result

B1: Ab-AG (antibody, V domains shown)
VH: QIQLVQSGPELKKPGETVKISCKASGYTFTDYSMHWVKQAPGKGLKWMGWINTETGEPTYAADFKGRFAFSLETSASTAYLQINNLKNEDTATYFCTLTGYWGQGTSVTVSS
VL: DIQMTQSPASLSASVGETVTITCGASENIYGALNWYQRKQGKSPQLLIFGATNLADGMSSRFSGSGSGRQYSLEISSLHPDDVATYYCQNLFNSPLTFGAGTKLDLK
notes: Murine anti-WISE monoclonal antibody; also called WISE Loop 2 Mab (Ab-AG)
binds: all assays above
